{
  "source": "patent US20190314260A1",
  "about": "“ENGINEERED TREATMENTS FOR HAIR REPAIR AND LONG-LASTING COLOR RETENTION” (Massachusetts Institute of Technology, priority 2018, published 2019)",
  "key": {"[1]": {"assay": "keratin binding domain absorption test (FITC-conjugated peptides, fluorescence microscopy), healthy hair", "settings": "FITC conjugate, 37° C. for 1 hr, hair washed 10 times", "experimental": "(§1) The peptide-FITC conjugate is not seen on healthy hair because the hydrophobic surface of healthy hair cuticles prevents binding of the peptide. However, peptide-FITC conjugates are shown to be absorbed in damaged hair because the peptide bonds to exposed keratin proteins on damaged hair shafts. […] This is due to binding of the C-terminal cysteine present on Peptide 2 to the exposed keratin protein on the damaged hair.\n(§2) Samples of healthy and damaged hair were incubated with the FITC-conjugated peptides at 37° C. for 1 hr, followed by washing the hair 10 times (FIG. 5). The results are provided in the images obtained by fluorescent microscopy shown in the right part of FIG. 5."}, "[2]": {"tested_on": "exposed keratin proteins on damaged hair", "assay": "keratin binding domain absorption test (FITC-conjugated peptides, fluorescence microscopy), damaged hair", "settings": "FITC conjugate, 37° C. for 1 hr, hair washed 10 times", "from_the_text": "as §1\nTo provide damaged hair for treatment using the exemplary engineered keratin-binding construct, hair was incubated with 10% H2O2(v/v) in 0.1M Na2CO3/NaHCO3 (pH 9.0) buffer at 50° C. for 1 hr, and then the hairs were washed in deionized (DI) water.\nas §2"}, "[3]": {"assay": "solubility test in oil-based solvents", "assay_type": "physicochemical", "settings": "2.5 mg protein/10 mL solvent", "experimental": "Solubility tests were performed by adding keratin-binding protein to 7 different solvents at concentrations of 2.5 mg protein/10 mL solvent. […] KBP was soluble in polysorbate 40 (Tween® 40) and Solubilisant CLR, with only a few visible particles present in solution."}, "damaged hair": {"tested_on": "damaged hair", "assay": "affinity of keratin binding protein tagged with a fluorescent dye for damaged and undamaged hair (fluorescence microscopy)", "experimental": "Keratin binding protein tagged with a fluorescent dye was incubated with damaged and undamaged (virgin) hair, and observed by fluorescence microscopy. The results are depicted in FIG. 8, with microscopy images shown on the left and intensity of corrected fluorescence shown on the right. Corrected fluorescence=Integrated Density−(selected area X Mean fluorescence of background).\nThe damaged hair incubated with keratin binding protein tagged with a fluorescent dye for varying amounts of time was then subjected to washing with shampoo."}, "IL-6 in fibroblast cells": {"tested_on": "IL-6 in fibroblast cells", "assay": "IL-6 ELISA (immune response)", "assay_type": "cell-based", "settings": "LPS positive control", "experimental": "(§3) Keratin-binding protein (B22) was tested for immune response by performing an IL-6 ELISA and IFN-γ ELISA. The effects of KBP and KBP-lipid conjugate on the immune response was assessed by measuring levels of IL-6 and IFN-γ in fibroblast cells. No protein was added to the cells as a negative control. Lipopolysaccharides (LPS) were used as a positive control."}, "[4]": {"tested_on": "IFN-γ in fibroblast cells", "assay": "IFN-γ ELISA (immune response)", "assay_type": "cell-based", "settings": "LPS positive control", "experimental": "as §3"}, "NIH3T3 fibroblast cell": {"tested_on": "NIH3T3 fibroblast cell", "assay": "MTT assay, NIH3T3 fibroblast cell viability", "assay_type": "cell-based", "settings": "in the presence of the protein"}},
  "note": "No end group written: not given here.",
  "data": [
    {"molecule": "peptide1-FITC: Peptide1 (AKTKKVELFPK) conjugated to fluorescein isothiocyanate (FITC) (also: FITC conjugate, site not given here)", "values": [
      {"measurement": "binding to healthy hair", "setting": "[1]", "result": "Neither peptide1-FITC nor peptide1-FITC is shown as binding"}
    ]},
    {"molecule": "Peptide 2: same keratin binding domain as peptide 1 plus a C-terminal cysteine, AKTKKVELFPKC; SEQ ID NO: 5", "values": [
      {"measurement": "affinity to damaged hair compared to Peptide 1", "setting": "[2]", "result": "higher affinity"},
      {"measurement": "binding affinity to the damaged hair", "setting": "[2]", "result": "strong binding affinity"}
    ]},
    {"molecule": "KBP: engineered keratin-binding protein without tyrosine residues; keratin-binding domain SEQ ID NO: 1 repeated three times, expressed in E. coli (protein) MAKTHHHHHHQGQVQHLQAAFSQYKKVELFPKGGQGQVQHLQAAFSQYKKVELFPKGGQGQVQHLQAAFSQYKKVELFPKGGYYYYC", "values": [
      {"measurement": "solubility in butylene glycol", "setting": "[3]", "result": "not soluble"},
      {"measurement": "solubility in glycerin", "setting": "[3]", "result": "not soluble"},
      {"measurement": "solubility in hexylene glycol", "setting": "[3]", "result": "not soluble"},
      {"measurement": "solubility in polysorbate 20 (Tween® 20)", "setting": "[3]", "result": "not soluble"},
      {"measurement": "solubility in Solubilisant CLR", "setting": "[3]; only a few visible particles", "result": "soluble"},
      {"measurement": "solubility in polysorbate 40 (Tween® 40)", "setting": "[3]; only a few visible particles", "result": "soluble"},
      {"measurement": "binding to damaged hair versus healthy hair", "setting": "damaged hair", "result": "binds more readily to damaged hair"},
      {"measurement": "production of IL-6", "setting": "IL-6 in fibroblast cells", "result": "No production"},
      {"measurement": "production of IFN-γ", "setting": "[4]", "result": "No production"},
      {"measurement": "NIH3T3 fibroblast cell viability", "setting": "NIH3T3 fibroblast cell", "result": "increased"}
    ]},
    {"molecule": "KBPY: keratin-binding protein with tyrosine residues, SEQ ID NO: 2: MAKT-6His-three keratin-binding domain repeats-YYYYC (protein) MAKTHHHHHHQGQVQHLQAAFSQYKKVELFPKGGQGQVQHLQAAFSQYKKVELFPKGGQGQVQHLQAAFSQYKKVELFPKGGYYYYC", "values": [
      {"measurement": "NIH3T3 fibroblast cell viability", "setting": "NIH3T3 fibroblast cell", "result": "increased"}
    ]}
  ]
}
